The record followed here is US20200054723A1 (ALLAKOS, published 2020).

“And” between values parts separate entries of the source, which are not always exact repeats. Equal entries are not always repeated.

Assay [1] concerns the target T1, human Siglec-8 Domains 1, 2, and 3 Fusion Protein (human).
T1 construct: fused to human Ig-Fc, expressed in CHO cells; also called Domain 1 + 2 + 3-Fc
Nature of the assay: Western blot of reduced SDS-PAGE (linear epitope).

In assay [2] the target is T2, human Siglec-8 on human cells (eosinophils, mast cells) (human, UniProt Q9NYZ4 17-499). The assay can be described thus: cell-based or functional assay.
Assay [3] concerns the target T3, baboon Siglec-8 Domains 1, 2, and 3 Fusion Protein (olive baboon (Papio anubis)).
T3 construct: fused to human Ig-Fc
The assay can be described thus: ELISA, baboon cross-reactivity. As for the experimental part: (§1) To identify the region comprising the epitope for anti-Siglec-8 antibodies, fusion proteins containing each of the Siglec-8 extracellular domains fused to human Ig-Fc were expressed and purified from CHO cells.
(§2) For the antibody binding assays, ELISA plates (MaxiSorp; Nunc) were coated overnight at 4° C. with fusion protein at 0.2 μg/ml and blocked for 1 hour at room temperature with 2% BSA in PBS. Antibodies at 1 μg/ml were added and the plates were incubated for 2 hours at room temperature. After washing the plates, horseradish peroxidase conjugated secondary antibody was added and the plates were incubated for 1 hour. Secondary antibodies were anti-human H+L HRP (Jackson ImmunoResearch, Catalog Number 709-035-149) for humanized antibodies or anti-mouse H+L HRP (Jackson ImmunoResearch, Catalog Number 715-035-151) for mouse antibodies. The plates were developed with TMB Substrate (Sigma, Catalog Number T0440-1L).

Assay [4] has as its target T4, human Siglec-8 Domains 1 and 2 Fusion Protein (human).
T4 construct: fused to human Ig-Fc, expressed in CHO cells; also called Domain 1 + 2-Fc
Nature of the assay: ELISA, coated fusion protein, antibody at 1 µg/ml. The method, then:
as §1, §2

Assay [5] deals with T1, human Siglec-8 Domains 1, 2, and 3 …. The assay can be described thus: ELISA, coated fusion protein, antibody at 1 µg/ml. The method, then: as §1, §2
In assay [6] the target is T5, human Siglec-8 Domain 1 Fusion Protein (human).
T5 construct: fused to human Ig-Fc, expressed in CHO cells; also called Domain 1-Fc
Nature of the assay: ELISA, coated fusion protein, antibody at 1 µg/ml. The method, then: as §1, §2

Assay [7] has as its target T6, Dimeric Siglec-8 (human Siglec-8 ECD protein) (human, UniProt Q9NYZ4 17-363).
T6 construct: extracellular domain; Analyte of the Biacore avidity assay
The assay can be described thus: SPR (Biacore), antibody captured, dimeric Siglec-8 as analyte, 1:1 global fit (avidity). As for the experimental part:
Antibody avidity determination was carried out by SPR analysis using a Biacore T200. Binding of human Siglec-8 ECD protein to mouse, chimeric and humanized anti-Siglec-8 antibodies was measured on a […]. The capture antibodies (goat-anti-human-Fc and goat-anti-mouse-Fc from Jackson Immunoresearch) were immobilized on a CM5 chip according to manufacturer's protocol (Biacore, GE). Flow-cell 1, 2 and 3 were immobilized with anti-human, and flow cell 4 with anti-mouse antibodies. The assay was conducted at 25° C., at a flow rate of […]. Assay buffer was 20 mM Tris-HCl pH 8.3, 150 mM Sodium Chloride, 0.05% Polysorbate 20, 10% glycerol, 0.1% BSA, made in ultrapure water. Dimeric Siglec-8 (impurities of monomeric and oligomeric Siglec-8 were removed by size-exclusion chromatography) was diluted in assay buffer from 15 nM to […] with 2× dilutions. Antibodies were captured to a change of approximately 120 RU. Six-minute high performance injections were conducted, followed by 120-minute dissociations. Flow cells were regenerated with 50 mM glycine pH 1.5. Results were double blanked with an empty reference cell and multiple assay buffer injections, and analyzed with 1:1 global fit parameters.

In assay [8] the target is T7, recombinant human Siglec-8 extracellular domain (ECD) (human, UniProt Q9NYZ4 17-363).
T7 construct: extracellular domain; also called Siglec-8 ECD; full Siglec-8 ECD
Nature of the assay: ELISA, coated Siglec-8 ECD.

In assay [9] the target is T2, human Siglec-8 on human cells …. The assay can be described thus: cell-based or functional assay. This is another data set of the same source.
The target in assay [10] is T7, recombinant human Siglec-8 …. The assay can be described thus: ELISA, coated Siglec-8 ECD. The source holds these as a separate data set.
For assay [11], the target named is T3, baboon Siglec-8 Domains 1, 2, and 3 …. Nature of the assay: ELISA, coated fusion protein. As for the experimental part:
as §1, §2

Assay [12] addresses T5, human Siglec-8 Domain 1 Fusion Protein. The assay can be described thus: ELISA, coated fusion protein. As for the experimental part: as §1, §2

T1 sequence (chain, as listed by the source limits assumed): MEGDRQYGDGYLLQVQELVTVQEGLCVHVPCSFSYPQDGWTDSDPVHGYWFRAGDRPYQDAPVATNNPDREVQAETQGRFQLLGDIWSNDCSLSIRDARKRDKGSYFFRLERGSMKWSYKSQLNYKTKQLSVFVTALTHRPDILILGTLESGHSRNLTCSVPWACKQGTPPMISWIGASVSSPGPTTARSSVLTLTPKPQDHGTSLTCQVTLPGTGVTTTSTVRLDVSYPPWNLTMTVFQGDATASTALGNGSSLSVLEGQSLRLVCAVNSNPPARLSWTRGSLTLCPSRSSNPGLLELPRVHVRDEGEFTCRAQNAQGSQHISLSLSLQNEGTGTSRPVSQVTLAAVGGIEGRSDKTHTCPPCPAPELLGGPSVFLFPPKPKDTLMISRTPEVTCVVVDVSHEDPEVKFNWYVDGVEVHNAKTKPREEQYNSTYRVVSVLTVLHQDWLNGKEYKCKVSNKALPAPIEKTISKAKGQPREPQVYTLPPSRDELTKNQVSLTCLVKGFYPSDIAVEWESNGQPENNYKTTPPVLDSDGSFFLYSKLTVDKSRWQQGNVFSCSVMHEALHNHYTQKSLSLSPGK
T6 sequence (Q9NYZ4 17-363): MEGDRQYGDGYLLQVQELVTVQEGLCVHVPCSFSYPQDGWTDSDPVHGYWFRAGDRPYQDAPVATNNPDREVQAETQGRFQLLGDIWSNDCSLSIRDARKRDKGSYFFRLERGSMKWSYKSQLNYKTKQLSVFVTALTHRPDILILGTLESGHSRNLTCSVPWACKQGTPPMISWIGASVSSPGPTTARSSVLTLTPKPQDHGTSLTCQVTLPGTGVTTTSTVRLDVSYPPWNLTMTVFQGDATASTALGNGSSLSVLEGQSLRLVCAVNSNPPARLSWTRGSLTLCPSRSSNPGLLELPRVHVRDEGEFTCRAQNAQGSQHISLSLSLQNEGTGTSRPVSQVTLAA
T7 sequence (Q9NYZ4 17-363): as above
T2 sequence (Q9NYZ4 17-499): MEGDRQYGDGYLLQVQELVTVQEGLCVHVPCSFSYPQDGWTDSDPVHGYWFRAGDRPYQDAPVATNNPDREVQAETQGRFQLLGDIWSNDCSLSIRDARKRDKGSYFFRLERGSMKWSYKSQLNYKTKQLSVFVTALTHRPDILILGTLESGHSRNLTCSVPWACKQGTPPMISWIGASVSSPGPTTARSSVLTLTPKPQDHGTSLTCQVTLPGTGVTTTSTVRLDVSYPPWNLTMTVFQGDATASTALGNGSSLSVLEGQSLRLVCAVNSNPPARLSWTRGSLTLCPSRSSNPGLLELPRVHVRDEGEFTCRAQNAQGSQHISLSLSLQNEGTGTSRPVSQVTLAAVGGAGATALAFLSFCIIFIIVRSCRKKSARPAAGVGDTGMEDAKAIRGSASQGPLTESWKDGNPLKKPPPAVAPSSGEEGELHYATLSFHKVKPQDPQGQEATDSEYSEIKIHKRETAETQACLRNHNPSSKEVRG
T3 sequence (chain, as listed by the source limits assumed): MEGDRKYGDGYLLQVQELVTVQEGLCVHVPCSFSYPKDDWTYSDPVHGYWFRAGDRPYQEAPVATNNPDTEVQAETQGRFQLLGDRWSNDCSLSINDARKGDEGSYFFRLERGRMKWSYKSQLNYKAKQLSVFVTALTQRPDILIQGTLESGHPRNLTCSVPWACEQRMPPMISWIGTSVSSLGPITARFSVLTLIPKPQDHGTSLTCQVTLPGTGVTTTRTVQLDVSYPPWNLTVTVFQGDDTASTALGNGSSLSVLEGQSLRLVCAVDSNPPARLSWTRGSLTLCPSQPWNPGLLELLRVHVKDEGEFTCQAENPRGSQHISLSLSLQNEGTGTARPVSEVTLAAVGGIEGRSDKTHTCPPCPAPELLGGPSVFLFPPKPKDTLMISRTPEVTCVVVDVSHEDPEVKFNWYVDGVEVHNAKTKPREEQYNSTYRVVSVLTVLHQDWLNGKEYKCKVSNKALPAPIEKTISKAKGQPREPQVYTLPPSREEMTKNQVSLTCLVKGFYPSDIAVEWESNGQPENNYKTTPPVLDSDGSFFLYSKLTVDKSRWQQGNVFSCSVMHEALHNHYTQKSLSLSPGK
T5 sequence (chain, as listed by the source limits assumed): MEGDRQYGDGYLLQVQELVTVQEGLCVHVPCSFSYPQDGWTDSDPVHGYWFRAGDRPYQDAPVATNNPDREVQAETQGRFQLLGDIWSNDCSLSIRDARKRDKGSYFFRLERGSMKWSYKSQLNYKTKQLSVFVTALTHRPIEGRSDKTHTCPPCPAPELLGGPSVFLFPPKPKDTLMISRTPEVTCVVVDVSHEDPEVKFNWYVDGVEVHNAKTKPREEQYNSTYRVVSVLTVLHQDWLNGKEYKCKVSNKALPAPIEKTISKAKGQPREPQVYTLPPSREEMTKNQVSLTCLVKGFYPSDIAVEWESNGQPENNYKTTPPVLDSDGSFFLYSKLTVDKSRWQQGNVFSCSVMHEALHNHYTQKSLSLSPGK
T4 sequence (chain, as listed by the source limits assumed): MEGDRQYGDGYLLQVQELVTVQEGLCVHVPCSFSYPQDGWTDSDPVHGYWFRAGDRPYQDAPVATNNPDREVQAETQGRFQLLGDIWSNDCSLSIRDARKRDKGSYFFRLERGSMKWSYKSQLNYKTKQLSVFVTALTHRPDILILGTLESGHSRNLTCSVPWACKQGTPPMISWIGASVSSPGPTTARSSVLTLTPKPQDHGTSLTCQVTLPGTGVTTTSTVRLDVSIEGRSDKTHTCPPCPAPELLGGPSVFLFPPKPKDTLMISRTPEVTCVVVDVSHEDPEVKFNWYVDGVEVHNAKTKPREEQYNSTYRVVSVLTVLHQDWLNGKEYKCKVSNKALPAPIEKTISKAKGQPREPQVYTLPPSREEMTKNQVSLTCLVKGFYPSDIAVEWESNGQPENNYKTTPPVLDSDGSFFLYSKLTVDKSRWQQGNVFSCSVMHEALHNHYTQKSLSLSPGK

B1: murine 1H10 antibody (antibody, mouse IgG1, V domains shown)
VH: EVQLQQSGAELVRPGASVKLSCTASGFNIKDYYMYWVKQRPEQGLEWIGRIAPEDGDTEYAPKFQGKATVTADTSSNTAYLHLSSLTSEDTAVYYCTTEGNYYGSSILDYWGQGTTLTVSS
VL: DIQMTQTTSSLSASLGDRVTISCRASQDITNYLNWYQQKPDGTVKLLIYFTSRLHSGVPSRFSGSGSGTDYSLTISNLEQEDIATYFCQQGNTLPWTFGGGTKLEIK
notes: murine IgG1 heavy chain and kappa light chain
Take B1: the binding result in assay [1] and in assay [3] was “binds” throughout. Also, in assay [2], the “Mean EC50 (ng/ml) for eosinophil killing (2 donors)” value (shortened to “Mean EC50 (ng/ml) … (2 donors)”) was found to be 41 ng/mL.

B2: HEKA IgG1 antibody (antibody)
heavy: not shown
light: EIVLTQSPATLSLSPGERATLSCSATSSVSYMHWFQQKPGQAPRLLIYSTSNLASGIPARFSGSGSGTDFTLTISSLEPEDFAVYYCQQRSSYPFTFGPGTKLDIKRTVAAPSVFIFPPSDEQLKSGTASVVCLLNNFYPREAKVQWKVDNALQSGNSQESVTEQDSKDSTYSLSSTLTLSKADYEKHKVYACEVTHQGLSSPVTKSFNRGEC
In the case of B2, the binding result in [4] is on record as “binds”. Besides, in assay [5], the binding result is on record as “binds”. For the same molecule, the binding result in assay [6] is recorded as “binds”. Moreover, in assay [7], the Kd worked out at 0.017 nM, the koff was determined as 1.11e-05 s⁻¹ and the kon was determined as 638000 M⁻¹ s⁻¹. For the same molecule, the EC50 in assay [8] is 0.068 nM and 0.054 nM and 0.064 nM and 0.112 nM. For the same molecule, the “Mean EC50 (ng/ml) for eosinophil depletion” value in assay [9] was 4.3 ng/mL.

B3: HEKF IgG1 antibody (antibody, V domains shown)
VH: EVQLVESGGGLVQPGGSLRLSCAASGFSLTIYGAHWVRQAPGKGLEWVGVIWAGGSTNYNSALMSRFTISKDNSKNTVYLQMNSLRAEDTAVYYCARDGSSPYYYSMEYWGQGTTVTVSS
VL: EIVLTQSPATLSLSPGERATLSCSATSSVSYMHWFQQKPGQAPRLLIYSTSNLASGIPARFSGSGSGTDYTLTISSLEPEDFAVYYCQQRSSYPFTFGPGTKLDIKR
notes: also called HEKF T2
In assay [7], B3 gave a Kd of 0.021 nM, a koff of 1.4e-05 s⁻¹ and a kon of 678000 M⁻¹ s⁻¹. For the same molecule, in assay [8], the EC50 is 0.064 nM and 0.074 nM and 0.052 nM and 0.097 nM. For the same molecule, in assay [9], the “Mean EC50 (ng/ml) for eosinophil depletion” value was determined as 6.7 ng/mL.

B4: murine 4F11 antibody (antibody, mouse IgG1, V domains shown)
VH: QVQLQQSGAELVKPGASVKISCKASGYAFRSSWMNWVKQRPGKGLEWIGQIYPGDDYTNYNGKFKGKVTLTADRSSSTAYMQLSSLTSEDSAVYFCARLGPYGPFADWGQGTLVTVSA
VL: QIVLTQSPAIVSASPGEKVTMTCSASSSVSYMYWYQQRPGSSPRLLIYDTSSLASGVPVRFSGSGSGTSYSLTISRIESEDAANYYCQQWNSDPYTFGGGTKLEIK
notes: as for B1
For the molecule B4, the binding result in assay [1] and in assay [3] was “binds” throughout. In assay [2], the “Mean EC50 (ng/ml) … (2 donors)” value was 5.9 ng/mL.

B5: HA2KD (antibody, human IgG1, V domains shown)
VH: QVQLQESGPGLVKPSETLSLTCTVSGGSISIYGAHWIRQPPGKGLEWIGVIWAGGSTNYNSALMSRVTISVDTSKNQFSLKLSSVTAADTAVYYCARDGSSPYYYSMEYWGQGTLVTVSS
VL: EIVLTQSPATLSLSPGERATLSCSATSSVSYMHWFQQKPGQAPRLWIYSTSNLASGIPARFSGSGSGTDFTLTISSLEPEDFAVYYCQQRSSYPFTFGPGTKLDIK
notes: human IgG1/kappa
On to B5, for which, in [10], the binding result is “no binding”.

B6: HA2KG (antibody, human IgG1, V domains shown)
VH: QVQLQESGPGLVKPSETLSLTCTVSGGSISIYGAHWIRQPPGKGLEWIGVIWAGGSTNYNSALMSRVTISVDTSKNQFSLKLSSVTAADTAVYYCARDGSSPYYYSMEYWGQGTLVTVSS
VL: EIVLTQSPATLSLSPGERATLSCSATSSVSYMHWYQQKPGQAPRLLIYSTSNLASGIPARFSGSGSGTDFTLTISSLEPEDFAVYYCQQRSSYPFTFGPGTKLDIK
notes: human IgG1/kappa
As for B6, the binding result in [10] is “no binding”.

B7: HA2KE (antibody, human IgG1, V domains shown)
VH: QVQLQESGPGLVKPSETLSLTCTVSGGSISIYGAHWIRQPPGKGLEWIGVIWAGGSTNYNSALMSRVTISVDTSKNQFSLKLSSVTAADTAVYYCARDGSSPYYYSMEYWGQGTLVTVSS
VL: EIVLTQSPATLSLSPGERATLSCSATSSVSYMHWFQQKPGQAPRLLIYSTSNLASGVPARFSGSGSGTDFTLTISSLEPEDFAVYYCQQRSSYPFTFGPGTKLDIK
notes: human IgG1/kappa
B7: the binding result in assay [10] was “no binding”.

B8: mouse 2E2 antibody (antibody, mouse IgG1, kappa)
heavy: QVQLKRASGPGLVAPSQSLSITCTVSGFSLTIYGAHWVRQPPGKGLEWLGVIWAGGSTNYNSALMSRLSISKDNSKSQVFLKINSLQTDDTALYYCARDGSSPYYYSMEYWGQGTSVTVSSAKTTPPSVYPLAPGSAAQTNSMVTLGCLVKGYFPEPVTVTWNSGSLSSGVHTFPAVLESDLYTLSSSVTVPSSPRPSETVTCNVAHPASSTKVDKKIVPRDCGCKPCICTVPEVSSVFIFPPKPKDVLTITLTPKVTCVVVDISKDDPEVQFSWFVDDVEVHTAQTQPREEQFNSTFRSVSELPIMHQDWLNGKEFKCRVNSAAFPAPIEKTISKTKGRPKAPQVYTIPPPKEQMAKDKVSLTCMITDFFPEDITVEWQWNGQPAENYKNTQPIMNTNGSYFVYSKLNVQKSNWEAGNTFTCSVLHEGLHNHHTEKSLSHSPG
light: QIILTQSPAIMSASPGEKVSITCSATSSVSYMHWFQQKPGTSPKLWIYSTSNLASGVPVRFSGSGSGTSYSLTISRMEAEDAATYYCQQRSSYPFTFGSGTKLEIKADAAPTVSIFPPSSEQLTSGGASVVCFLNNFYPKDINVKWKIDGSERQNGVLNSWTDQDSKDSTYSMSSTLTLTKDEYERHNSYTCEATHKTSTSPIVKSFNRNEC
notes: murine IgG1/kappa; also called m2E2; murine 2E2
Regarding B8, the binding result in assay [11] was “no binding (tested: 1 µg/ml)”. For the same molecule, in assay [7], the Kd came to 0.028 nM, the koff was 1.54e-05 s⁻¹ and the kon is 556000 M⁻¹ s⁻¹. For the same molecule, the “Mean EC50 (ng/ml) … (2 donors)” value in assay [2] was found to be 6.9 ng/mL. For the same molecule, in [9], the “Mean EC50 (ng/ml) for eosinophil depletion” value came to 6.8 ng/mL.

B9: murine 1C3 antibody (antibody, mouse IgG2a, V domains shown)
VH: EVQVVESGGDLVKSGGSLKLSCAASGFPFSSYAMSWVRQTPDKRLEWVAIISSGGSYTYYSDSVKGRFTISRDNAKNTLYLQMSSLKSEDTAMYYCARHETAQAAWFAYWGQGTLVTVSA
VL: QIVLTQSPAIMSASPGEKVTMTCSASSSVSYMHWYQQKSGTSPKRWIYDTSKLAYGVPARFSGSGSGTSYSLTISSMEAEDAATYYCQQWSSNPPTFGGGTKLEIK
notes: murine IgG2a heavy chain and kappa light chain
B9: the binding result in assay [12] is “no binding (tested: 1 µg/ml)”; in [11], “no binding (tested: 1 µg/ml)”; in assay [4], “binds”; in assay [5], “binds”. Moreover, the “Mean EC50 (ng/ml) … (2 donors)” value in assay [2] was 7.7 ng/mL.
